According to publication PMC7763228, “Structural Studies of HNA Substrate Specificity in Mutants of an Archaeal DNA Polymerase Obtained by Directed Evolution”:

T1: TgoT_6G12 DNA polymerase (Thermococcus gorgonarius, UniProt P56689 1-773, V93Q;D141A;E143A;A485L;V589A;E609K;I610M;K659Q;E664Q;Q665P;R668K;D669Q;K671H;K67 …)
T1 sequence: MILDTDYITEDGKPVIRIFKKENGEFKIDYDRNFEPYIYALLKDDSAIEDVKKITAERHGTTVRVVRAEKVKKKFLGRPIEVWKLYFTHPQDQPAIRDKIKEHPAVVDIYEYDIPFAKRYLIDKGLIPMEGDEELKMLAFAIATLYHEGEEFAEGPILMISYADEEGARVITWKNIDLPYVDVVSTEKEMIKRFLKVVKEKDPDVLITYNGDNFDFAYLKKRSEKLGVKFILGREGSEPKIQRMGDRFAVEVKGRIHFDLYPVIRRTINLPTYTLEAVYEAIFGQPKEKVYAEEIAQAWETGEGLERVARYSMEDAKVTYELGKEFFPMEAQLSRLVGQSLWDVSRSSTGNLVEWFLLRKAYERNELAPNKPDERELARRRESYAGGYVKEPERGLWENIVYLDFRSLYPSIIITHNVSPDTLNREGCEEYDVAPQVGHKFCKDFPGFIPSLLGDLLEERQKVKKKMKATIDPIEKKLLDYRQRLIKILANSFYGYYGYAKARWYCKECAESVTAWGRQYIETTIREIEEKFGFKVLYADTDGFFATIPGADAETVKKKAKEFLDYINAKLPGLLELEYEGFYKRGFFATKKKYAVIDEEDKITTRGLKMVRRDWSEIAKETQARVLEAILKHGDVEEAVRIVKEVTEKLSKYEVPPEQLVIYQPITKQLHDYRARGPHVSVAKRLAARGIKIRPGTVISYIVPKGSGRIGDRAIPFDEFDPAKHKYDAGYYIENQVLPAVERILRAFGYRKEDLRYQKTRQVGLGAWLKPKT


What was measured:
TgoT_6G12 DNA polymerase [1] = molecular target: T1, TgoT_6G12 DNA polymerase; assay: X-ray crystallography; binary complex, 2.8 A; ddTTP added; 10% PEG 20K, 0.1 M MES-NaOH pH 6.5; Co-crystallization: protein 5 mg/mL with 1.5x primer-template, 5 mM ddTTP or hCTP/ddCTP, 2 mM MnCl2 (not stated for the 6G12 binary DNA complex); incubated at 4 C (binary) or room temperature; 5-10% PEG 20K, 0.1 M MES-NaOH pH 6.0-6.5; protein buffer 50 mM Tris-HCl pH 7.5, 200 mM NaCl, 0.1 mM EDTA, 1 mM DTT; details: protein: recombinant, template 5' overhang 8 nt
TgoT_6G12 DNA polymerase [2] = molecular target: T1, TgoT_6G12 DNA polymerase; assay: X-ray crystallography; ternary complex with incoming ddTTP, 2 mM MnCl2, 3.15 A; 5% PEG 20K, 0.1 M MES-NaOH pH 6.0; Co-crystallization: protein 5 mg/mL with 1.5x primer-template, 5 mM ddTTP or hCTP/ddCTP, 2 mM MnCl2 (not stated for the 6G12 binary DNA complex); incubated at 4 C (binary) or room temperature; 5-10% PEG 20K, 0.1 M MES-NaOH pH 6.0-6.5; protein buffer 50 mM Tris-HCl pH 7.5, 200 mM NaCl, 0.1 mM EDTA, 1 mM …; details: protein: recombinant, template 5' overhang 8 nt

Row | Binder | binding result (TgoT_6G12 DNA polymerase [1]) | binding result (TgoT_6G12 DNA polymerase [2])
1 | P5-T13 primer-template (dsDNA) DNA 1: CGCAT DNA 2: AACGGCTAATGCG | binds | –
2 | P5-T13' primer-template (dsDNA) DNA 1: CGCAT DNA 2: AACGGCAAATGCG | – | binds
